Experimental data: US20100260668A1 (published 2010)

B1: DVD490 (bispecific antibody, human IgG1, kappa)
heavy: not shown
light: DIQMTQSPSSLSASVGDRVTITCRASQDVSTAVAWYQQKPGKAPKLLIYSASFLYSGVPSRFSGSGSGTDFTLTISSLQPEDFATYYCQQSYTTPPTFGQGTKVEIKRTVAAPDIQMTQSSSYLSVSLGGRVTITCKASDHINNWLAWYQQKPGNAPRLLISGATSLETGVPSRFSGSGSGKDYTLSITSLQTEDVATYYCQQYWSIPLTFGAGTKLELKRTVAAPSVFIFPPSDEQLKSGTASVVCLLNNFYPREAKVQWKVDNALQSGNSQESVTEQDSKDSTYSLSSTLTLSKADYEKHKVYACEVTHQGLSSPVTKSFNRGEC
notes: DVD-Ig; N-term; VD AB070 (VEGF), C-term; VD AB072 (DLL4); HC linker short, LC linker short; also called DVD490H; DVD490L
B2: DVD502 (bispecific antibody, human IgG1, kappa)
heavy: not shown
light: DIQMTQSPSSLSASVGDRVTITCRASQDVSTAVAWYQQKPGKAPKLLIYSASFLYSGVPSRFSGSGSGTDFTLTISSLQPEDFATYYCQQSYTTPPTFGQGTKVEIKRTVAAPDIQMTQSSSYLSVSLGGRVTITCKASDHINNWLAWYQQKPGNAPRLLISGATSLETGVPSRFSGSGSGKDYTLSITSLQTEDVATYYCQQYWSIPLTFGAGTKLELKRTVAAPSVFIFPPSDEQLKSGTASVVCLLNNFYPREAKVQWKVDNALQSGNSQESVTEQDSKDSTYSLSSTLTLSKADYEKHKVYACEVTHQGLSSPVTKSFNRGEC
notes: DVD-Ig; N-term; VD AB070 (VEGF), C-term; VD AB072 (DLL4); HC linker long, LC linker short; also called DVD502H; DVD502L
B3: DVD520 (bispecific antibody, human IgG1, kappa, lambda)
heavy: not shown
light: DIQMTQSPSSLSASVGDRVTITCRASQDVSTAVAWYQQKPGKAPKLLIYSASFLYSGVPSRFSGSGSGTDFTLTISSLQPEDFATYYCQQSYTTPPTFGQGTKVEIKRTVAAPSVFIFPPQAVVTQESALTTSPGETVTLTCRSSTGAVTTSNYANWVQEKPDHLFTGLIGGTNNRAPGVPARFSGSLIGDKAALTITGAQTEDEAIYFCALWYSNHWVFGGGTKLTVLGQPKAAPSVTLFPPSSEELQANKATLVCLISDFYPGAVTVAWKADSSPVKAGVETTTPSKQSNNKYAASSYLSLTPEQWKSHRSYSCQVTHEGSTVEKTVAPTECS
notes: DVD-Ig; N-term; VD AB070 (VEGF), C-term; VD AB073 (DLL4); HC linker long, LC linker long; also called DVD520H; DVD520L
B4: DVD532 (bispecific antibody, human IgG1, kappa, lambda)
heavy: not shown
light: DIQMTQSPSSLSASVGDRVTITCRASQDVSTAVAWYQQKPGKAPKLLIYSASFLYSGVPSRFSGSGSGTDFTLTISSLQPEDFATYYCQQSYTTPPTFGQGTKVEIKRTVAAPSVFIFPPQAVVTQESALTTSPGETVTLTCRSSTGAVTTSNYANWVQEKPDHLFTGLIGGTNNRAPGVPARFSGSLIGDKAALTITGAQTEDEAIYFCALWYSNHWVFGGGTKLTVLGQPKAAPSVTLFPPSSEELQANKATLVCLISDFYPGAVTVAWKADSSPVKAGVETTTPSKQSNNKYAASSYLSLTPEQWKSHRSYSCQVTHEGSTVEKTVAPTECS
notes: DVD-Ig; N-term; VD AB070 (VEGF), C-term; VD AB073 (DLL4); HC linker short, LC linker long; also called DVD532H; DVD532L
B5: DVD456 (bispecific antibody, human IgG1, kappa)
heavy: not shown
light: DIQMTQSPSSLSASVGDRVTITCRASQDVSTAVAWYQQKPGKAPKLLIYSASFLYSGVPSRFSGSGSGTDFTLTISSLQPEDFATYYCQQSYTTPPTFGQGTKVEIKRTVAAPDIVMTQSPDSLAVSLGERATISCRASESVDNYGISFMKWFQQKPGQPPKLLIYAASNQGSGVPDRFSGSGSGTDFTLTISSLQAEDVAVYYCQQSKEVPWTFGGGTKVEIKRTVAAPSVFIFPPSDEQLKSGTASVVCLLNNFYPREAKVQWKVDNALQSGNSQESVTEQDSKDSTYSLSSTLTLSKADYEKHKVYACEVTHQGLSSPVTKSFNRGEC
notes: DVD-Ig; N-term; VD AB070 (VEGF), C-term; VD AB069 (DLL4); HC linker long, LC linker short; also called DVD456H; DVD456L
B6: DVD514 (bispecific antibody, human IgG1, lambda)
heavy: not shown
light: DIQMTQSPSSLSASVGDRVTITCRASQDVSTAVAWYQQKPGKAPKLLIYSASFLYSGVPSRFSGSGSGTDFTLTISSLQPEDFATYYCQQSYTTPPTFGQGTKVEIKRTVAAPQAVVTQESALTTSPGETVTLTCRSSTGAVTTSNYANWVQEKPDHLFTGLIGGTNNRAPGVPARFSGSLIGDKAALTITGAQTEDEAIYFCALWYSNHWVFGGGTKLTVLGQPKAAPSVTLFPPSSEELQANKATLVCLISDFYPGAVTVAWKADSSPVKAGVETTTPSKQSNNKYAASSYLSLTPEQWKSHRSYSCQVTHEGSTVEKTVAPTECS
notes: DVD-Ig; N-term; VD AB070 (VEGF), C-term; VD AB073 (DLL4); HC linker short, LC linker short; also called DVD514H; DVD514L
B7: DVD526 (bispecific antibody, human IgG1, lambda)
heavy: not shown
light: DIQMTQSPSSLSASVGDRVTITCRASQDVSTAVAWYQQKPGKAPKLLIYSASFLYSGVPSRFSGSGSGTDFTLTISSLQPEDFATYYCQQSYTTPPTFGQGTKVEIKRTVAAPQAVVTQESALTTSPGETVTLTCRSSTGAVTTSNYANWVQEKPDHLFTGLIGGTNNRAPGVPARFSGSLIGDKAALTITGAQTEDEAIYFCALWYSNHWVFGGGTKLTVLGQPKAAPSVTLFPPSSEELQANKATLVCLISDFYPGAVTVAWKADSSPVKAGVETTTPSKQSNNKYAASSYLSLTPEQWKSHRSYSCQVTHEGSTVEKTVAPTECS
notes: DVD-Ig; N-term; VD AB070 (VEGF), C-term; VD AB073 (DLL4); HC linker long, LC linker short; also called DVD526H; DVD526L
B8: DVD450 (bispecific antibody, human IgG1, kappa)
heavy: not shown
light: DIQMTQSPSSLSASVGDRVTITCRASQDVSTAVAWYQQKPGKAPKLLIYSASFLYSGVPSRFSGSGSGTDFTLTISSLQPEDFATYYCQQSYTTPPTFGQGTKVEIKRTVAAPSVFIFPPDIVMTQSPDSLAVSLGERATISCRASESVDNYGISFMKWFQQKPGQPPKLLIYAASNQGSGVPDRFSGSGSGTDFTLTISSLQAEDVAVYYCQQSKEVPWTFGGGTKVEIKRTVAAPSVFIFPPSDEQLKSGTASVVCLLNNFYPREAKVQWKVDNALQSGNSQESVTEQDSKDSTYSLSSTLTLSKADYEKHKVYACEVTHQGLSSPVTKSFNRGEC
notes: DVD-Ig; N-term; VD AB070 (VEGF), C-term; VD AB069 (DLL4); HC linker long, LC linker long; also called DVD450H; DVD450L
B9: DVD462 (bispecific antibody, human IgG1, kappa)
heavy: not shown
light: DIQMTQSPSSLSASVGDRVTITCRASQDVSTAVAWYQQKPGKAPKLLIYSASFLYSGVPSRFSGSGSGTDFTLTISSLQPEDFATYYCQQSYTTPPTFGQGTKVEIKRTVAAPSVFIFPPDIVMTQSPDSLAVSLGERATISCRASESVDNYGISFMKWFQQKPGQPPKLLIYAASNQGSGVPDRFSGSGSGTDFTLTISSLQAEDVAVYYCQQSKEVPWTFGGGTKVEIKRTVAAPSVFIFPPSDEQLKSGTASVVCLLNNFYPREAKVQWKVDNALQSGNSQESVTEQDSKDSTYSLSSTLTLSKADYEKHKVYACEVTHQGLSSPVTKSFNRGEC
notes: DVD-Ig; N-term; VD AB070 (VEGF), C-term; VD AB069 (DLL4); HC linker short, LC linker long; also called DVD462H; DVD462L
B10: DVD496 (bispecific antibody, human IgG1, kappa)
heavy: not shown
light: DIQMTQSPSSLSASVGDRVTITCRASQDVSTAVAWYQQKPGKAPKLLIYSASFLYSGVPSRFSGSGSGTDFTLTISSLQPEDFATYYCQQSYTTPPTFGQGTKVEIKRTVAAPSVFIFPPDIQMTQSSSYLSVSLGGRVTITCKASDHINNWLAWYQQKPGNAPRLLISGATSLETGVPSRFSGSGSGKDYTLSITSLQTEDVATYYCQQYWSIPLTFGAGTKLELKRTVAAPSVFIFPPSDEQLKSGTASVVCLLNNFYPREAKVQWKVDNALQSGNSQESVTEQDSKDSTYSLSSTLTLSKADYEKHKVYACEVTHQGLSSPVTKSFNRGEC
notes: DVD-Ig; N-term; VD AB070 (VEGF), C-term; VD AB072 (DLL4); HC linker long, LC linker long; also called DVD496H; DVD496L
B11: DVD508 (bispecific antibody, human IgG1, kappa)
heavy: not shown
light: DIQMTQSPSSLSASVGDRVTITCRASQDVSTAVAWYQQKPGKAPKLLIYSASFLYSGVPSRFSGSGSGTDFTLTISSLQPEDFATYYCQQSYTTPPTFGQGTKVEIKRTVAAPSVFIFPPDIQMTQSSSYLSVSLGGRVTITCKASDHINNWLAWYQQKPGNAPRLLISGATSLETGVPSRFSGSGSGKDYTLSITSLQTEDVATYYCQQYWSIPLTFGAGTKLELKRTVAAPSVFIFPPSDEQLKSGTASVVCLLNNFYPREAKVQWKVDNALQSGNSQESVTEQDSKDSTYSLSSTLTLSKADYEKHKVYACEVTHQGLSSPVTKSFNRGEC
notes: DVD-Ig; N-term; VD AB070 (VEGF), C-term; VD AB072 (DLL4); HC linker short, LC linker long; also called DVD508H; DVD508L

target: T1, VEGF (UniProt P15692-4 27-191); experiment: SPR (Biacore), DVD-Ig captured, VEGF in solution
T1 construct: Bought reagent; also called vascular endothelial growth factor
T1 sequence (P15692 other isoform, or with tags, fused parts or gaps limits assumed): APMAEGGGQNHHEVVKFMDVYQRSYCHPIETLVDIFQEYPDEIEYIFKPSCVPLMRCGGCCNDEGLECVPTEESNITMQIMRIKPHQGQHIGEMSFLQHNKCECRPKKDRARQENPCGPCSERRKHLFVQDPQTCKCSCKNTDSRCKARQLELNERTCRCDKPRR

B1 and B2 are within 1.5-fold of each other in Kd: 189 pM for the first, 265 pM for the second.

Going from B3 to B4, the Kd falls from 817 pM to 276 pM (3-fold).

Compared with B5, B6 is 3.6-fold higher in Kd: 281 pM for the first, 1010 pM for the second. The first binds more tightly here.

Compared with B7, B8 is 2.6-fold lower in Kd: 675 pM for the first, 255 pM for the second.

Compared with B9, B10 is 2.8-fold lower in Kd: 864 pM for the first, 311 pM for the second.

B11 gave a Kd of 162 pM.

B1 and B2 are within 1.5-fold of each other in koff: 0.000169 s⁻¹ for the first, 0.000231 s⁻¹ for the second.

Compared with B3, B4 is 13-fold higher in koff: 0.000961 s⁻¹ for the first, 0.0123 s⁻¹ for the second.

Compared with B5, B6 is 8.2-fold lower in koff: 0.00448 s⁻¹ for the first, 0.000549 s⁻¹ for the second.

First: B7
Second: B8
The koff of the first is 5.4-fold lower: 0.000801 s⁻¹ for the first, 0.00431 s⁻¹ for the second.

First: B9
Second: B10
The koff of the first is 7.7-fold lower: 0.000858 s⁻¹ for the first, 0.00658 s⁻¹ for the second.

In the case of B11, the koff is reported as 0.000213 s⁻¹.

B1 and B2 are within 1.5-fold of each other in kon: 894000 M⁻¹ s⁻¹ for the first, 871000 M⁻¹ s⁻¹ for the second.

Compared with B3, B4 is 38-fold higher in kon: 1.18e+06 M⁻¹ s⁻¹ for the first, 4.47e+07 M⁻¹ s⁻¹ for the second.

First: B5
Second: B6
The kon of the first is 30-fold higher: 1.6e+07 M⁻¹ s⁻¹ for the first, 541000 M⁻¹ s⁻¹ for the second.

First: B7
Second: B8
The kon of the first is 14-fold lower: 1.19e+06 M⁻¹ s⁻¹ for the first, 1.69e+07 M⁻¹ s⁻¹ for the second.

First: B9
Second: B10
The kon of the first is 21-fold lower: 993000 M⁻¹ s⁻¹ for the first, 2.12e+07 M⁻¹ s⁻¹ for the second.

In the case of B11, the kon is reported as 1.31e+06 M⁻¹ s⁻¹.
